Source: patent US20160375113A1, “COMPOSITIONS COMPRISING ENO1 AND THEIR USE IN METHODS OF TREATING OBESITY OR OVERWEIGHT AND REDUCING WEIGHT GAIN” (Berg LLC, priority 2015, published 2016)
Entries after “also recorded” stand apart in the source; their conditions may differ.

What was measured:
[1] = Storage stability by ENO1 Human Activity Assay Kit (PK/LDH, NADH consumption); type: physicochemical; details: 500 ng Eno1; for activity at end of study (Week 10), −20° C.: kept at −20° C.; for activity retained at end of study (Week 10), −80° C.: kept at −80° C.; for Eno1 activity after storage, week 3, 4° C., 22° C., and 37° C.: stored at 4° C.; for Eno1 activity after storage, week 3, 4° C., 22° C., and 37° C. / Eno1 activity after storage, week 3, −80° C. and −20° C.: by week 3; for Eno1 activity after storage, week 3, −80° C. and −20° C.: stored at −80° C. and −20° C.; for Eno1 activity after storage, first week: stored at −80° C., −20° C., 4° C.; for Eno1 activity after storage, week 3, 4° C., 22° C., and 37° C. / Eno1 activity after storage, first week: 22° C., and 37° C.
Experimental: The stability of the Eno1-dendrimer-SMTP complex was evaluated at different temperatures, and stability was determined over a 3-4 month time period by measuring Eno1 activity using a commercially available Eno1 assay. The selected conjugates were also evaluated using biophysical techniques, including Dynamic Light Scattering (DLS) and UV-Vis spectroscopy to confirm complexation between the dendrimer-peptide conjugate and Eno1.
The stability of the Enolase-I/G5-dendrimer/SMTP conjugates was measured by using the ENO1 Human Activity Assay Kit (ABCAM, Cambridge, Mass.; Catalogue No. ab117994). Briefly, the sample was added to a microplate containing a monoclonal mouse antibody specific to Eno1. The microplate was incubated at room temperature for 2 hours, and Eno1 was immunocaptured within the wells of the microplate. The wells of the microplate were washed to remove all other enzymes. Eno1 activity was determined by following the consumption of NADH in an assay buffer that included pyruvate kinase (PK), lactate dehydrogenase (LDH) and the required substrates 2-phospho-D-glycerate (2PG) and NADH. Eno1 converts 2PG to phosphoenolpyruvate, which is converted to pyruvate by PK. Pyruvate is converted to lactate by LDH, and this reaction requires NADH. The consumption of NADH was monitored as decrease of absorbance at 340 nm.
The activity of Enolase-I/G5-dendrimer/SMTP conjugates that were stored at different temperatures at different time points was measured using the assay described above. A concentration of 500 ng of Eno1 was selected for testing because this concentration falls in the middle of the dynamic range of the assay kit. Two different sets of solutions were prepared. One set (control) contained Eno1 alone (i.e. unconjugated Eno1) and the other set contained Eno1/G5-dendrimer/SMTP mixtures. These mixtures were then kept at −80° C., −20° C., 4° C., 22° C., and 37° C. […] At the end of the study (Week 10), The Eno1/G5-dendrimer/SMTP solution that was kept at −80° C. retained about 90% of its activity whereas Eno1 alone was only 35% active. On the other hand, Eno1/G5-dendrimer/SMTP solution that was kept at −20° C. was about 24% active, whereas Eno1 alone stored at −20° C. was not active.

[2] = Tissue distribution of detectably labeled Eno1 PAMAM dendrimer complexes in mice (LI-COR imaging); type: in vivo
Experimental: A detectably labeled PAMAM dendrimer complex containing Eno1 was prepared using the method provided in the prior example and analyzed for tissue distribution in mice after subcutaneous injection. Specifically, for 72 hours prior to injection mice were fed alfalfa free food to limit background fluorescence. Mice were injected with 3 μg ENO1/mouse subcutaneously 150 μl total (75 μl left laterally, 75 μl right laterally). The molar ratio of dendrimer to Eno1 in the complex was 5:1. One, 4, and 24 hours post injection animals were sacrificed, skinned, and organs removed in preparation for LI-COR imaging.
A follow-up study was performed using the skeletal muscle targeted Eno1-PAMAM dendrimer complex containing the SMTP “ASSLNIA”. A detectably labeled PAMAM dendrimer complex containing Eno1 and SMTP ((Enolase-Vivo Tag680xl)-(G5-SMTP)) was prepared using the method provided in the prior example. The molar ratio of dendrimer to SMTP in the complex was 1:1. The experiments were performed essentially as described above. The skeletal muscle targeted Eno1-PAMAM dendrimer complex was administered at a dose of 50 μg/kg body weight. These images in FIG. 6B were taken after 1 hr of injection. Organs, other than the heart, were retained in the body.

db/db mice = experiment: Body weight / weight gain in db/db mice treated with rosiglitazone and muscle targeted Eno1/dendrimer complex; type: in vivo; details: Eno1 400 μg/kg/day subcutaneous added to rosiglitazone 20 mg/kg/day
Experimental: A muscle targeted Eno1/dendrimer complex was generated to analyze its efficacy in reducing weight gain. The dendrimer complex comprised human Eno1, transcript variant 1 protein (SEQ ID NO: 2) which was non-covalently linked to a G5-PAMAM dendrimer/muscle targeting peptide (MTP) (ASSLNIA; SEQ ID NO: 7) conjugate. Stock solutions of Eno1 were prepared in buffer and the protein solution was mixed with the G5 dendrimer-MTP conjugate.
Lean mice and male obese and diabetic db/db mice (male BKS.Cg-m+/+Lepr^db/J) mice were obtained from a commercial vendor. All mice were housed 2-3 per cage at 22° C. on a 12:12 hr day-night cycle and were acclimated for 3 weeks at animal facility on a standard chow diet. At 8 weeks of age, 200 μg/kg body weight Eno1 was administered twice daily (at 9:00 a.m. and 5:00 p.m., 400 μg/kg daily dose) by subcutaneous injection, and 20 mg/kg body weight rosiglitazone was administered once daily by gavage at 9:00 a.m. Lean mice and db/db mice also received subcutaneous injections of saline as a control. The treatment groups were as follows: • 1. lean mice with saline injection (control) • 2. db/db mice with saline injection (control) • 3. db/db mice with rosiglitazone (20 mg/kg, once daily) • 4. db/db mice with rosiglitazone (20 mg/kg, once daily)+Eno1 (200 μg/kg, twice daily) […]

Substance: Eno1 alone: Eno1 alone (i.e. unconjugated Eno1), control in the stability study
- activity at end of study (Week 10), −20° C. [1]: not active
- activity retained at end of study (Week 10), −80° C. [1]: 35%
- Eno1 activity after storage, week 3, 4° C., 22° C., and 37° C. [1]: no activity
- Eno1 activity after storage, week 3, −80° C. and −20° C. [1]: significant stability
- Eno1 activity after storage, first week [1]: active

Substance: Eno1-PAMAM dendrimer: detectably labeled PAMAM dendrimer complex containing Eno1, molar ratio of dendrimer to Eno1 5:1, no targeting peptide
- tissue distribution, 1 hour post injection ([2]; subcutaneous, 3 μg ENO1/mouse, dendrimer to Eno1 5:1, 1 hour (FIG. 6A)): general systemic distribution
- tissue distribution, 4 hours post injection ([2]; subcutaneous, 3 μg ENO1/mouse, dendrimer to Eno1 5:1, 4 hours (FIG. 6A)): significant accumulation of the Eno1-PAMAM dendrimer was observed in liver, kidney, and subcutaneous fat, as well as in the upper torso
- tissue distribution, 24 hours post injection ([2]; subcutaneous, 3 μg ENO1/mouse, dendrimer to Eno1 5:1, 24 hours (FIG. 6A)): substantially cleared and observed substantially in the liver and kidney

Substance: Eno1/G5-dendrimer/SMTP: Eno1 complexed with Generation 5 PAMAM dendrimers decorated with Skeletal Muscle Targeting Peptides (SMTPs)
- activity at end of study (Week 10), −20° C. [1]: about 24%
- activity retained at end of study (Week 10), −80° C. [1]: about 90%
- Eno1 activity after storage, week 3, 4° C., 22° C., and 37° C. [1]: no activity
- Eno1 activity after storage, week 3, −80° C. and −20° C. [1]: significant stability
- Eno1 activity after storage, first week [1]: active; also recorded: slightly higher activity than Eno1 alone

Substance: Eno1: In Example 1: human Eno1 transcript variant 1 protein (SEQ ID NO: 2) non-covalently linked to G5-PAMAM dendrimer/muscle targeting peptide (ASSLNIA) conjugate
- effect on rosiglitazone-induced weight gain (db/db mice): attenuates rosiglitazone-induced weight gain; also recorded: attenuates rosiglitazone induced weight gain; also recorded: attenuated

Substance: muscle-targeted Eno1 dendrimer complex: detectably labeled PAMAM dendrimer complex containing Eno1 and SMTP ASSLNIA, dendrimer to SMTP 1:1
- tissue distribution of muscle targeted complex, 1 hr after injection ([2]; 50 μg/kg body weight, dendrimer to SMTP 1:1, 1 hr (FIG. 6B)): targeted to skeletal muscle, not heart
